According to US20180273617A1 (AstraZeneca / MedImmune, published 2018):

Biological target: T1, human ASCT2 (SLC1A5) (human, UniProt Q15758 1-541)
T1 sequence (looked up): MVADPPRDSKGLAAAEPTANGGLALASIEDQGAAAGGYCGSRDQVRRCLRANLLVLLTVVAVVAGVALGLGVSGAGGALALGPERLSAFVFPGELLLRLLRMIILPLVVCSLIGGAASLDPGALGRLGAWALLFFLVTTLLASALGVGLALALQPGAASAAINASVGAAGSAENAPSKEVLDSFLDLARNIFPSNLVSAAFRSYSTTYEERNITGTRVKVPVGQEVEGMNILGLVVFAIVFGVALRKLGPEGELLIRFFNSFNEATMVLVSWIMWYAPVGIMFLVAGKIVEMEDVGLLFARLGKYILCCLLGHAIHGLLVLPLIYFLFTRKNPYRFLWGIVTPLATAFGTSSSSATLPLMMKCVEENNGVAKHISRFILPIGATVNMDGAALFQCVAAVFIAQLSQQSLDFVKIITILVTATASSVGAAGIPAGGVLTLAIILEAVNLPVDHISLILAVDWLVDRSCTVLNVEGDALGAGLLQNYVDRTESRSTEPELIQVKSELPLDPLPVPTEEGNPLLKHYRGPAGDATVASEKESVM
Experiment: cell-based or functional assay

B1: anti-ASCT2 antibody 17c10 conjugated to tubulysin AZ1508 (antibody, V domains shown)
VH: QVQLQQWGAGLLKPSETLSLTCAVYGGSFSGYYWSWIRQPPGKGLEWIGEIHHSGGANYNPSLKSRVTISVDTSKNQFSLKLTSVTAADTAVYYCARGQGKNWHYDYFDYWGQGTLVTVSS
VL: DIQMTQSPSTLSTSVGDRVTLTCRASQSIRSWLAWYQQNPGKAPKLLIYKASILKIGVPSRFSGSGSGTDFTLTITSLQPDDFATYYCQQYYSYSRTFGQGTKVEIK
modifications: tubulysin AZ1508 conjugated to a cysteine by a thiol-maleimide linkage; site not stated for these assays (engineered cysteine 239i or native cysteines)
With B1 the “IC50 (ng/ml), cytotoxic killing of SKMEL-2 cells, ASCT1-shRNA1 knockdown” value was 7.59 ng/mL, the “IC50 (ng/ml), cytotoxic killing of SKMEL-2 cells, ASCT1-shRNA2 knockdown” value was 4.96 ng/mL and the “IC50 (ng/ml), cytotoxic killing of SKMEL-2 cells, ASCT2-shRNA knockdown” value was 205 ng/mL. For the same binder, the “IC50 (ng/ml), cytotoxic killing of SKMEL-2 cells, NTshRNA (non-target control)” value was 14.3 ng/mL.
